Among the data in the Human Domainome abundance scans (Beltran et al. 2025) are abundance fitness values, retold here.

± gives the uncertainty stated by the source.

This data set in a line: abundance fitness (aPCA) (normalised: wild type 0, dead -1); higher = more abundant; growth selection in yeast, the domain comes from the species named. Particulars: Homo sapiens.
As for “NEDD4-like E3 ubiquitin-protein ligase WWP2 Y454A, O00308”, the abundance fitness was -0.036 ± 0.056.

Consider “NEDD4-like E3 ubiquitin-protein ligase WWP2 Y454C, O00308”, for which the abundance fitness was -0.037 ± 0.048. For the substance “NEDD4-like E3 ubiquitin-protein ligase WWP2 Y454D, O00308”, the abundance fitness is -0.461 ± 0.12. With “NEDD4-like E3 ubiquitin-protein ligase WWP2 Y454E, O00308” the figure was -0.046 ± 0.052.

Regarding “NEDD4-like E3 ubiquitin-protein ligase WWP2 Y454F, O00308”, the abundance fitness was -0.083 ± 0.059.

The substance “NEDD4-like E3 ubiquitin-protein ligase WWP2 Y454G, O00308” gave an abundance fitness of -0.428 ± 0.045. For “NEDD4-like E3 ubiquitin-protein ligase WWP2 Y454H, O00308”, the abundance fitness was -0.306 ± 0.066. With “NEDD4-like E3 ubiquitin-protein ligase WWP2 Y454I, O00308” the figure was -0.065 ± 0.062; with “NEDD4-like E3 ubiquitin-protein ligase WWP2 Y454K, O00308”, -0.015 ± 0.067; with “NEDD4-like E3 ubiquitin-protein ligase WWP2 Y454L, O00308”, -0.035 ± 0.031. In turn, “NEDD4-like E3 ubiquitin-protein ligase WWP2 Y454M, O00308” returned an abundance fitness of -0.185 ± 0.063.

As to “NEDD4-like E3 ubiquitin-protein ligase WWP2 Y454N, O00308”, the abundance fitness was -0.121 ± 0.077. On to “NEDD4-like E3 ubiquitin-protein ligase WWP2 Y454P, O00308”, for which the abundance fitness is -0.592 ± 0.068.

With “NEDD4-like E3 ubiquitin-protein ligase WWP2 Y454Q, O00308”, the abundance fitness turned out to be 0.008 ± 0.071. On to “NEDD4-like E3 ubiquitin-protein ligase WWP2 Y454R, O00308”, for which the abundance fitness is -0.029 ± 0.033. “NEDD4-like E3 ubiquitin-protein ligase WWP2 Y454S, O00308” showed an abundance fitness of -0.132 ± 0.043. Regarding “NEDD4-like E3 ubiquitin-protein ligase WWP2 Y454T, O00308”, the abundance fitness is -0.006 ± 0.057. “NEDD4-like E3 ubiquitin-protein ligase WWP2 Y454V, O00308” showed an abundance fitness of -0.047 ± 0.048.

On to “NEDD4-like E3 ubiquitin-protein ligase WWP2 Y454W, O00308”, for which the abundance fitness is -0.056 ± 0.035. Regarding “NEDD4-like E3 ubiquitin-protein ligase WWP2 Y461A, O00308”, the abundance fitness is -0.669 ± 0.072. Turning to “NEDD4-like E3 ubiquitin-protein ligase WWP2 Y461C, O00308”, the abundance fitness is -0.538 ± 0.061. The substance “NEDD4-like E3 ubiquitin-protein ligase WWP2 Y461D, O00308” gave an abundance fitness of -1.1 ± 0.15. As to “NEDD4-like E3 ubiquitin-protein ligase WWP2 Y461E, O00308”, the abundance fitness was -0.577 ± 0.071.

The substance “NEDD4-like E3 ubiquitin-protein ligase WWP2 Y461F, O00308” displayed an abundance fitness of -0.236 ± 0.075. In the case of “NEDD4-like E3 ubiquitin-protein ligase WWP2 Y461G, O00308”, the abundance fitness is -0.863 ± 0.045. Substance “NEDD4-like E3 ubiquitin-protein ligase WWP2 Y461H, O00308” gave an abundance fitness of -0.526 ± 0.077. Consider “NEDD4-like E3 ubiquitin-protein ligase WWP2 Y461I, O00308”, for which the abundance fitness was -0.509 ± 0.086.

“NEDD4-like E3 ubiquitin-protein ligase WWP2 Y461K, O00308” gave an abundance fitness of -0.621 ± 0.072. “NEDD4-like E3 ubiquitin-protein ligase WWP2 Y461L, O00308” registered an abundance fitness of -0.375 ± 0.048. Consider “NEDD4-like E3 ubiquitin-protein ligase WWP2 Y461M, O00308”, for which the abundance fitness was -0.424 ± 0.038. “NEDD4-like E3 ubiquitin-protein ligase WWP2 Y461N, O00308” displayed an abundance fitness of -0.752 ± 0.052. Consider “NEDD4-like E3 ubiquitin-protein ligase WWP2 Y461P, O00308”, for which the abundance fitness is -0.824 ± 0.045.
